In patent publication US8828923B2, “Insulin derivatives” (Novo Nordisk A/S, priority 2003, dated 2014):

Columns and labels:
Sprague Dawley male rats = assay: Assay (II) potency relative to human insulin, euglycaemic clamp with i.v. infusion; assay type: in vivo; details: rat clamp, i.v. infusion for 300 min, 15 and 20 pmol/min/kg
From the text: Sprague Dawley male rats weighing 238-383 g on the experimental day were used for the clamp experiment. The rats had free access to feed under controlled ambient conditions and were fasted overnight (from 3 pm) prior to the clamp experiment.
The rats were acclimatized in the animal facilities for at least 1 week prior to the surgical procedure. Approximately 1 week prior to the clamp experiment Tygon catheters were inserted under halothane anaesthesia into the jugular vein (for infusion) and the carotid artery (for blood sampling) and exteriorised and fixed on the back of the neck. The rats were given Streptocilin vet. (Boehringer Ingelheim; 0.15 ml/rat, i.m.) post-surgically and placed in an animal care unit (25° C.) during the recovery period. In order to obtain analgesia, Anorphin (0.06 mg/rat, s.c.) was administered during anaesthesia and Rimadyl (1.5 mg/kg, s.c.) was administered after full recovery from the anaesthesia (2-3 h) and again once daily for 2 days.
The clamp technique employed was adapted from (1). At 7 am on the experimental day overnight fasted (from 3 pm the previous day) rats were weighed and connected to the sampling syringes and infusion system (Harvard 22 Basic pumps, Harvard, and Perfectum Hypodermic glass syringe, Aldrich) and then placed into individual clamp cages where they rested for ca. 45 min before start of experiment. The rats were able to move freely on their usual bedding during the entire experiment and had free access to drinking water. […] Plasma glucose levels were measured at 10 min intervals throughout and infusion of 20% aqueous glucose was adjusted accordingly in order to maintain euglyceamia. Samples of re-suspended erythrocytes were pooled from each rat and returned in about ½ ml volumes via the carotid catheter.
Rats were killed at the end of experiment using a pentobarbital overdose.
Test compounds and doses: Insulins to be tested were diluted from a stock solution containing 97 μM of the insulin derivative in 5 mM phosphate pH 7.7. The final concentration in the solution ready for use was 0.45 μM of the insulin derivative, 5 mM of phosphate, 100 mM of sodium chloride, 0.007% of polysorbate 20. The pH was 7.7 and the i.v. infusion rate was 15 and 20 pmol-min^−1−kg^−1.
Both stock solutions were stored at −20 C. and thawed overnight at 4° C. before use. The solutions were gently turned upside down several times 15 min before they were transferred to the infusion syringes.

human insulin receptor = human insulin receptor (Homo sapiens, UniProt P06213); assay: Assay (I) insulin receptor binding, SPA antibody capture assay; details: recombinant human insulin receptor - exon 11, A14 Tyr[125I]-human insulin tracer
human insulin receptor, sequence (P06213 28-746 isoform P06213-2 limits assumed): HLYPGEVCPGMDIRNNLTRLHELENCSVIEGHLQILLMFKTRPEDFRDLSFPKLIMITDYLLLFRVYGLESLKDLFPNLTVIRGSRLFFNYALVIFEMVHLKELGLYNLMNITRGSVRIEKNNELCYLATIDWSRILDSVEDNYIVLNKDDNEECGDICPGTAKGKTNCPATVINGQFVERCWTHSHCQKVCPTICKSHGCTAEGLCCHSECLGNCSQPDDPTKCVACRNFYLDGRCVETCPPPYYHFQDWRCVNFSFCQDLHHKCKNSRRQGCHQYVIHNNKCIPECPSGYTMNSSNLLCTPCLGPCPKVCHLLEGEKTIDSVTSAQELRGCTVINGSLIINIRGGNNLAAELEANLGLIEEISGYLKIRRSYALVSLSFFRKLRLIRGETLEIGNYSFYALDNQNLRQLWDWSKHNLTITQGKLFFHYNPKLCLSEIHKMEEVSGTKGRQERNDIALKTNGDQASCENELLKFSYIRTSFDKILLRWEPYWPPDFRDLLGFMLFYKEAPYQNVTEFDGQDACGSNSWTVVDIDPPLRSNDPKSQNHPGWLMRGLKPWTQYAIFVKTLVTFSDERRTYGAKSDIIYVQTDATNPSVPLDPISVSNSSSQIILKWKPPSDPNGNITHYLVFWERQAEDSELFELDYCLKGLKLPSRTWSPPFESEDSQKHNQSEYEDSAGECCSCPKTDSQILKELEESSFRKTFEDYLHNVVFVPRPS
human insulin receptor, sequence (P06213 763-1382 partner limits assumed): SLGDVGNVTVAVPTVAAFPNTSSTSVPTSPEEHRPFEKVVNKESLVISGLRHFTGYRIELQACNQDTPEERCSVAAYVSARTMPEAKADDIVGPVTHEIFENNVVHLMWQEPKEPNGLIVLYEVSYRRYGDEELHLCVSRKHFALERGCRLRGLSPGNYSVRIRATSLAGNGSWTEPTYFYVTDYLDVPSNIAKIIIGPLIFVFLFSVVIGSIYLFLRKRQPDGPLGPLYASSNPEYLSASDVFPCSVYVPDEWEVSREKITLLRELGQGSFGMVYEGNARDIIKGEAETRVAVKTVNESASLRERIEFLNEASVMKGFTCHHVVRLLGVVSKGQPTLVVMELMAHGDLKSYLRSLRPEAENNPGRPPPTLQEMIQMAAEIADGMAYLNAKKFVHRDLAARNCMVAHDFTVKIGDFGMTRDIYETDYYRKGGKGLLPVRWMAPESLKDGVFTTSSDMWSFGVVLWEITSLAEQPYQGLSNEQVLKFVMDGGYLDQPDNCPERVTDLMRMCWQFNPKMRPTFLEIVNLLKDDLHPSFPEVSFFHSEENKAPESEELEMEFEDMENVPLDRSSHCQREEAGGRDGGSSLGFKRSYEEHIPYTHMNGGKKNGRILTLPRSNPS
Description: SPA-PVT antibody-binding beads, anti-mouse reagent (Amersham Biosciences, Cat No. PRNQ0017) were mixed with 25 ml of binding buffer (100 mM HEPES pH 7.8; 100 mM sodium chloride, 10 mM MgSO4, 0.025% Tween-20). […] A total of 100 μl was then added and a dilution series is made from appropriate samples. To the dilution series was then added 100 μl of reagent mix and the samples were incubated for 16 hours while gently shaken. The phases were the then separated by centrifugation for 1 min and the plates counted in a Topcounter. The binding data were fitted using the nonlinear regression algorithm in the GraphPad Prism 2.01 (GraphPad Software, San Diego, Calif.).
Specific antibodies (F12) were produced by monoclonal technique: RBF mice were immunized by injecting 50 μg of purified mIR in FCA subcutaneously followed by two injections with 20 μg of mIR in FIA. Highresponder mice were boosted intravenously with 25 μg of mIR and the spleens were harvested after 3 days. Spleen cells were fused with the myeloma Fox cell line (Kohler, G & Milstein C. (1976), European J. Immunology, 6:511-19; Taggart RT et al (1983), Science 219:1228-30). Supernatants were screened for antibody production in a mIR specific ELISA. Positive wells were cloned and tested in Western blotting.

[1] = Hydrophobicity (hydrophobic index) k′rel relative to human insulin by isocratic RP-HPLC; assay type: physicochemical; details: LiChrosorb RP18, isocratic elution, 40° C., pH 7.3 phosphate/acetonitrile
Description: The elution was monitored by following the UV absorption of the eluate at 214 nm. Void time, t0, was found by injecting 0.1 mM sodium nitrate.

Substance: N^εB29—(N^α-(HOOC(CH2)14CO)-γ-Glu) des(B30) Human Insulin
- Potency relative to human insulin (Sprague Dawley male rats): >50%
- Receptor binding (% of human insulin) (human insulin receptor): 26 % of human insulin
- k′rel (hydrophobic index relative to human insulin) [1]: 0.87

Substance: N^εB29—(N^α-(HOOC(CH2)16CO)-γ-Glu—N-(γ-Glu)) des(B30) Human Insulin
- Potency relative to human insulin (Sprague Dawley male rats): >50%
- Receptor binding (% of human insulin) (human insulin receptor): 11 % of human insulin
- k′rel (hydrophobic index relative to human insulin) [1]: 1.17

Substance: N^εB29—(N—(Gly-OC(CH2)13CO-γ-L-Glu) des(B30) Human Insulin
- Receptor binding (% of human insulin) (human insulin receptor): 22 % of human insulin
- k′rel (hydrophobic index relative to human insulin) [1]: 0.58

Substance: N^εB29—(N—(Gly-OC(CH2)14CO-γ-L-Glu) des(B30) Human Insulin
- Potency relative to human insulin (Sprague Dawley male rats): >50%
- Receptor binding (% of human insulin) (human insulin receptor): 32 % of human insulin
- k′rel (hydrophobic index relative to human insulin) [1]: 0.88

Substance: N^εB29—(N—(Gly-OC(CH2)16CO-γ-L-Glu) des(B30) Human Insulin
- Receptor binding (% of human insulin) (human insulin receptor): 9.1 % of human insulin
- k′rel (hydrophobic index relative to human insulin) [1]: 1.57

Substance: N^εB29—(N—(HOOC(CH2)14CO-ε-L-LysCO—) des(B30) Human Insulin
- Receptor binding (% of human insulin) (human insulin receptor): 5.7 % of human insulin
- k′rel (hydrophobic index relative to human insulin) [1]: 0.90

Substance: N^εB29—(N—(L-Asp-OC(CH2)16CO)-γ-L-Glu) des(B30) Human Insulin
- Receptor binding (% of human insulin) (human insulin receptor): 13 % of human insulin
- k′rel (hydrophobic index relative to human insulin) [1]: 0.70

Substance: N^εB29—(N—(L-Glu-OC(CH2)14CO-γ-L-Glu) des(B30) Human Insulin
- Receptor binding (% of human insulin) (human insulin receptor): 13 % of human insulin
- k′rel (hydrophobic index relative to human insulin) [1]: 0.33

Substance: N^εB29—(N—(L-Glu-OC(CH2)14CO—) des(B30) Human Insulin
- Receptor binding (% of human insulin) (human insulin receptor): 9.4 % of human insulin
- k′rel (hydrophobic index relative to human insulin) [1]: 1.17

Substance: N^εB29—(N—(L-Sar-OC(CH2)13CO-γ-L-Glu) des(B30) Human Insulin
- Receptor binding (% of human insulin) (human insulin receptor): 20 % of human insulin
- k′rel (hydrophobic index relative to human insulin) [1]: 0.63

Substance: N^εB29—(N—HOOC(CH2)8CO-γ-Glu) des(B30) human insulin
- k′rel (hydrophobic index relative to human insulin) [1]: 0.45

Substance: N^εB29—(N—HOOC(CH2)13CO-β-L-Asp) des(B30) Human Insulin
- Receptor binding (% of human insulin) (human insulin receptor): 11 % of human insulin
- k′rel (hydrophobic index relative to human insulin) [1]: 0.47

Substance: N^εB29—(N—HOOC(CH2)13CO-β-L-Glu) des(B30) Human Insulin
- Receptor binding (% of human insulin) (human insulin receptor): 15 % of human insulin
- k′rel (hydrophobic index relative to human insulin) [1]: 0.54

Substance: N^εB29—(N—HOOC(CH2)14CO-β-D-Asp) des(B30) Human Insulin
- Receptor binding (% of human insulin) (human insulin receptor): 37 % of human insulin

Substance: N^εB29—(N—HOOC(CH2)14CO-β-L-Asp) des(B30) Human Insulin
- Potency relative to human insulin (Sprague Dawley male rats): >50%
- Receptor binding (% of human insulin) (human insulin receptor): 16 % of human insulin
- k′rel (hydrophobic index relative to human insulin) [1]: 0.69

Substance: N^εB29—(N—HOOC(CH2)15CO-β-L-Asp) des(B30) Human Insulin
- Receptor binding (% of human insulin) (human insulin receptor): 5.4 % of human insulin
- k′rel (hydrophobic index relative to human insulin) [1]: 1.09

Substance: N^εB29—(N—HOOC(CH2)15CO-γ-L-Glu) des(B30) Human Insulin
- Receptor binding (% of human insulin) (human insulin receptor): 4 % of human insulin
- k′rel (hydrophobic index relative to human insulin) [1]: 1.13

Substance: N^εB29—(N—HOOC(CH2)16CO-α-Glu)-N-(AspAsp) des(B30) human insulin
- k′rel (hydrophobic index relative to human insulin) [1]: 1.07

Substance: N^εB29—(N—HOOC(CH2)16CO-α-L-Asp) des(B30) Human Insulin
- Receptor binding (% of human insulin) (human insulin receptor): 13 % of human insulin
- k′rel (hydrophobic index relative to human insulin) [1]: 1.49

Substance: N^εB29—(N—HOOC(CH2)16CO-α-L-Asp)—N-(β-L-Asp) des(B30) Human Insulin
- Receptor binding (% of human insulin) (human insulin receptor): 14 % of human insulin

Substance: N^εB29—(N—HOOC(CH2)16CO-α-L-Glu) des(B30) Human Insulin
- Receptor binding (% of human insulin) (human insulin receptor): 16 % of human insulin
- k′rel (hydrophobic index relative to human insulin) [1]: 1.51

Substance: N^εB29—(N—HOOC(CH2)16CO-α-L-Glu)—N—(β-L-Asp) des(B30) Human Insulin
- Receptor binding (% of human insulin) (human insulin receptor): 11 % of human insulin
- k′rel (hydrophobic index relative to human insulin) [1]: 1.11

Substance: N^εB29—(N—HOOC(CH2)16CO-β-L-Asp) des(B30) Human Insulin
- Receptor binding (% of human insulin) (human insulin receptor): 11 % of human insulin
- k′rel (hydrophobic index relative to human insulin) [1]: 1.54

Substance: N^εB29—(N—HOOC(CH2)16CO-γ-D-Glu) des(B30) Human Insulin
- Receptor binding (% of human insulin) (human insulin receptor): 13 % of human insulin
- k′rel (hydrophobic index relative to human insulin) [1]: 1.4

Substance: N^εB29—(N—HOOC(CH2)16CO-δ-L-Aad) des(B30) Human Insulin
- Receptor binding (% of human insulin) (human insulin receptor): 7 % of human insulin
- k′rel (hydrophobic index relative to human insulin) [1]: 0.84

Substance: N^εB29—[N^α-(HOOC(CH2)11)NHCO(CH2)3CO)-γ-L-Glu] des(B30) Human Insulin
- Receptor binding (% of human insulin) (human insulin receptor): 46 % of human insulin
- k′rel (hydrophobic index relative to human insulin) [1]: 0.42

Substance: N^εB29—[N—(HOOC(CH2)16CO)—N-(carboxymethyl)-β-Ala] des(B30) Human Insulin
- Receptor binding (% of human insulin) (human insulin receptor): 9.4 % of human insulin
- k′rel (hydrophobic index relative to human insulin) [1]: 1.13

Substance: NεB29—(Nα-(HOOC(CH2)16CO)-γ-Glu) des(B30) Human Insulin
- Potency relative to human insulin (Sprague Dawley male rats): >50%
- Receptor binding (% of human insulin) (human insulin receptor): 9.2 % of human insulin
- k′rel (hydrophobic index relative to human insulin) [1]: 1.15
